{
  "source": "patent US20230235299",
  "proteins": {"B1": {"name": "3×HA-6His tag fusion transglutaminase (AO090023000250 of Aspergillus oryzae with a C-terminal 3×HA-6His tag) (protein)", "chain": "MAEETQVLSIQQRIAALNQAQVGQSPQAAASPLLGAQPTPFASRPAPSRQQTINNPPVNSHDSLGDRNEPTGAQPKPVPRPPPIPVQKPRAPPPLPARKASTESAPALPPRRPSGFSRKESRESLGSDVSHSTSTSAGRATIASTTSNNSDTIRSVRAPAWGAKLPPLPPKRQDTKTVQPPPRPRPSPANSSRSLSQGRPSLPPRRESTNSTSTNGNRSTSRPPPPLPSRINSDKSPGPSADTNGKQSTRKLPPPPPSSAALEKIQSSGLAGINRNTENSGKGTNGSVQEPQPNGVPPPVPRATRPDVDLAKLQATKPRLCKTTHSATAPSTMCLKCRDFSAPDAHAAQYPRESLPSYDLAWLARELTAPFPSPTDKARALFTWFHHNIEYDVHSFFNKCVKPSTPAGTLASGLAVCEGYASLFATLATHAGLEAVVVAGHGKGYGYDAPAPGSPIPPVSATGHAWSAVRIDNGQWKLLDACWGAGVVQGPGLPYKKQFNPAMFTDSNDEFGLRHFPSNRSHFFRDDGRPEITWEEYILGNPNSPLSAEQPTIFGDAQNHSIGERSFRPAAKQISIHDPSPLRFQFNLICEHWTLEHHTRAKPGLFLLMVHGLDGRQDDRLPFTHVRGSGPGGGGDFWYVDVPNAKILGAPGQKLAIAVLTSFGDRKDARGVTAEEYRQQVGRVGMAWAYIAEWQLV"}},
  "target": "N,N-dimethylated casein",
  "data": [
    {"protein": "B1", "values": [
      {"measurement": "polymerization of casein (SDS-PAGE, Coomassie blue staining)", "result": "in the presence of the purified or unpurified 3×HA-6His tag fusion protein, polymerization of casein was observed"}
    ]}
  ]
}
